Assay results taken from the supplement of paper PMC12042874.
± gives the uncertainty stated by the source.

Assay: amyloid nucleation score (Sup35N fusion, yeast selection) (log enrichment); library NNK1; higher = more nucleation; inactive = no reads after selection
Procedure, shortened: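 DiMSum was used to calculate nucleation scores as log enrichment of output over input reads, centred on the mode score of non-aggregating sequences. Sequences with fewer than 100 input reads were not scored. Input and output came from Illumina sequencing of plasmid inserts in psi-negative yeast expressing peptides of 20 random codons fused to Sup35N, induced 24 hours with 100 μM copper sulfate and then grown 7 days at 30°C on medium lacking adenine and uracil.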

Substance	amyloid nucleation score
ILICKSVRVQYTLSKLW	1.8 ± 0.17
ILKEIMIGGRDRTDDWKSHG	-1.3 ± 0.8
ILLLVSISMVKESDQWLING	-0.519 ± 0.51
ILLRSNIFMYFNMTEMPNSC	6.798 ± 0.055
ILNGSPKWNGWRTITCSAVS	0.667 ± 0.44
ILRCRGNALNAYWRGSFNR	4.59 ± 0.078
ILRRRMHDG	0.247 ± 1.4
ILSLIVFNYDYCSKVWNLLG	-1.53 ± 0.66
ILTRRSLLRLWIIISDKSFR	-0.695 ± 1.4
IMFYMTVDGCLSVEYIFR	-0.704 ± 0.42
IMKLYPLRQSG	0.453 ± 1.2
IMKSFMDATYVSCFWILMPA	1.57 ± 0.53
IMPSCKLLAAHVADYVFLMR	0.863 ± 0.84
IMRNVQTDA	0.383 ± 0.52
IMYNCRYWSGVTLHYSVVQH	1.89 ± 0.16
INFDRNFF	-0.54 ± 0.31
INGPCLLTYLPLAEVGCCLV	0.25 ± 0.55
INIGFMKGV	0.416 ± 0.61
INLCVPPRNVLFIDRCWTVV	1.29 ± 0.3
INLVTKYHLSITCSHSCQA	7.204 ± 0.05
INMLTWGWELILSGSSVYED	-0.151 ± 0.41
INMRKYSNTGSGRLIFNFAF	6.039 ± 0.052
INRTTRNLLSRCRWYNCYKR	0.155 ± 1
INRVSLCTVEAVLSHEDACG	-0.494 ± 0.32
INSAHYELN	-1.51 ± 2.4
INVFREAYIIYCRCEGSGGD	7.507 ± 0.059

Substance	amyloid nucleation score
INVIPDLD	-0.572 ± 0.5
INVWNLSWGNMIRAKNHLGV	-0.107 ± 0.53
INYRLYGVIGVAGTGPG	0.1 ± 0.33
IPGGLNKERPYWYCTQMAGT	1.25 ± 0.55
IPKVRTRVLGIISTTSLLGG	0.037 ± 0.97
IPLVVVNPSARFRLRTKIIR	0.908 ± 0.88
IPNISGYPHICMESGGSLVC	0.004 ± 0.61
IQGGKNYRKQDHTRHVTTGT	-1.37 ± 2.4
IRAFSWTIMLLFYCWWHVEN	0.402 ± 0.86
IRISVAVHVIVMNYMYPYLI	-0.44 ± 1.2
IRLMRWGRCVGISVEGVC	0.789 ± 0.46
IRSSFMLRCIVSYVPCNTGL	-0.027 ± 1.1
IRSVGRSLRFMYS	0.204 ± 0.46
IRSYHLVFVGM	5.13 ± 0.1
IRTVAR	0.142 ± 0.38
IRTVKADNMRIWQAQRSSEI	0.157 ± 0.87
IRVSFIVQSCILSALEDALN	2.68 ± 0.13
ISAKH	-0.89 ± 0.65
ISCQQSE	-1.57 ± 2.4
ISCVDWAIKCGVVGSLVSET	0.681 ± 0.99
ISFDSLWDCSYS	-0.232 ± 0.23
ISFYTVRWLAAGRRFLISF	0.224 ± 0.59
ISICTMLLFSPVS	-0.894 ± 0.83
ISINQIMFAKGPYFERLAEN	4.07 ± 0.096
ISNDYGATMFNLGCYI	1.17 ± 0.18
ISPCDIYRHLSIKGQSCDLI	0.004 ± 0.32

Substance	amyloid nucleation score
ISPRHNYPQILMVLLIKVYF	-1.33 ± 1.3
ISSECQVICYLLHEFSPASV	1.35 ± 0.25
ISSLESRTTMRVV	0.377 ± 0.5
ISSYTCCFYSYHQSHVMPLG	5.848 ± 0.051
ISTCLRTSFYVDVGNMSFCN	0.206 ± 0.44
ISTNLHGDIKMVFVAIPWQE	4.85 ± 0.09
ISWVPDAVNFFACMHW	0.094 ± 0.51
ISWYGFAT	inactive
ISYGKDNESGCLLHYFHAWV	inactive
ISYQVLFIDRWGCRSLPCVW	0.395 ± 0.39
ITAWWQVSL	0.565 ± 0.36
ITDCPCRGISVCVV	-0.288 ± 0.26
ITLRVLFFRGKVLFTSGIQE	0.71 ± 1.1
ITQIADLWHKMT	-0.954 ± 0.89
ITVST	-0.134 ± 1.4
ITVSYDKGFSFNLWGIHFKV	0.071 ± 0.28
IVDCYSLDRYRVLLWSS	0.566 ± 0.36
IVEMHYMAGWTGMEMMSWAH	0.413 ± 1
IVFDSLRGCSF	inactive
IVFLVLRTANRMWNDYHAS	-0.075 ± 0.33
IVFNIYLILAKWWVTVTYSD	-1.25 ± 0.5
IVFVLQGRRQ	0.634 ± 0.88
IVGSSQLSYLGLAFSYGVQV	-0.903 ± 1.7
IVGVYLSLNWRHPSRQGSGC	0.321 ± 0.19
IVMCTVGKSLMIAQKDHAWA	-0.109 ± 0.61
IVNFRVNRPSL	0.205 ± 0.31

Substance	amyloid nucleation score
IVVSVVTASI	-0.018 ± 0.75
IWCHRSGRLFPSMLLKYYRD	-0.766 ± 1.7
IWMWEWQHCSEARKNMMWVS	2.1 ± 0.13
IWMYP	1.7 ± 0.65
IYAGHRQHGAV	-0.386 ± 0.55
IYAYAIDSFRSLVFFVFMFG	inactive
IYFGSCSRLWPHHVNT	0.436 ± 0.73
IYGAAFVAEGWTPTLSVGDK	0.141 ± 0.39
IYGGRIS	-0.557 ± 0.75
IYGWVHTSMRMRVGTAVLPR	0.375 ± 0.54
IYINVP	0.764 ± 0.38
IYSNEELIMRVVNQY	0.856 ± 0.58
KAEMFNYLTNHTP	-0.033 ± 1.1
KANACGRFTN	3.72 ± 0.1
KAVYVVNGLFVHCVTR	0.267 ± 0.21
KCIGKHEAVMKIFNWDEENW	1.73 ± 0.49
KCNVTQFVRSLYIRMSMLLH	0.534 ± 0.39
KCRVHSSN	-1.08 ± 1.5
KCTVDQTSNIAACTSVGLCI	5.36 ± 0.093
KCWLHCWWTVNKTLRYAVRS	-0.531 ± 0.47
KCYIVSLNNVGCFTNASS	5.13 ± 0.072
KDGFTSRAWPHMFKSLRSQL	1.07 ± 0.63
KDHNVGMYLAGENCHLG	0.915 ± 0.9
KDLEPVSARMFLLLLICLA	0.057 ± 0.52
KFLRGYSCNVRSRPTRDRSV	inactive
KFRRLQARFASMMSSTFT	1.82 ± 0.14

Substance	amyloid nucleation score
KFSGWHLHGDLCRIHALEVW	0.457 ± 0.27
KFWTGPIRYVN	-0.149 ± 0.31
KGYGRFMSFF	-0.697 ± 0.4
KGYLLRWLGEVYFVNYGSNS	-0.585 ± 0.84
KILVVGHRESIMCTDSYIMW	-0.294 ± 0.59
KISCIISWLYDFIIKLAFFT	-0.931 ± 0.68
KIVCLKFYVIDMRSMLTVVS	2.54 ± 0.088
KIVSEFCL	0.36 ± 0.36
KKDSTYSRSRLDPFRLSVSV	-0.14 ± 0.5
KKFFKYELFEVCIFLGYRCS	0.493 ± 1.2
KKGLLIVVVAHSERYVVDIA	-0.547 ± 0.44
KKMRGTFIRFIYRLFFLRYA	0.656 ± 0.5
KLFGTAYS	-0.847 ± 0.96
KLFSK	inactive
KLIVWDKCSTCHSDVVLLFK	0.734 ± 0.97
KLKQVCPLTPVSRVSEQGKK	-0.441 ± 1.1
KLLPYMYCHYN	1.27 ± 0.39
KLLVLLNN	inactive
KLLWSPYSGCVVYNIKVKGR	3.67 ± 0.13
KLNLKFYAFYNM	5.49 ± 0.073
KLPIAGCYRVINCTVRGE	-0.008 ± 0.26
KLQLVSLWQ	2.77 ± 0.11
KLSDSSLTKCRYSHFYRSSM	-1.99 ± 2.4
KLTCRDSRFVRAIFVMSKSA	-0.458 ± 0.3
